# Results reported in the supplement of paper PMC10567573.
# B1: EMD (parent)
# chain: YQSKGYNDDYYEESYFTTRTYGEP
# Variants of: B1
# Experiment: protein stability index of a GFP-peptide fusion (GPS, HEK-293T) (PSI 1-6); higher = more stable
# Conditions: c terminus: a fixed tail appended
# 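Further: lentivirally expressed fusions sorted by FACS into six bins by GFP to DsRed ratio, PSI derived from sequencing read proportions per bin multiplied by bin number.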
row,Variant,protein stability index
1,YQSKGYNDDYYEESYFFTRTYGEP,1.85
2,YQSKGYNDDYYEESYFCTRTYGEP,1.96
3,YQSKGYNDDYYEESYFITRTYGEP,2.1
4,YQSKGYNDDYYEESYFETRTYGEP,3.02
5,YQSKGYNDDYYEESYFSTRTYGEP,2.48
6,YQSKGYNDDYYEESYFQTRTYGEP,2.31
7,YQSKGYNDDYYEESYFMTRTYGEP,1.71
8,YQSKGYNDDYYEESYFWTRTYGEP,2.15
9,YQSKGYNDDYYEESYFKTRTYGEP,2.56
10,YQSKGYNDDYYEESYFLTRTYGEP,2.42
11,YQSKGYNDDYYEESYFGTRTYGEP,2.82
12,YQSKGYNDDYYEESYFPTRTYGEP,2.4
13,YQSKGYNDDYYEESYFHTRTYGEP,2.07
14,YQSKGYNDDYYEESYFNTRTYGEP,2.35
15,YQSKGYNDDYYEESYFDTRTYGEP,3.19
16,YQSKGYNDDYYEESYFATRTYGEP,2.36
17,YQSKGYNDDYYEESYFYTRTYGEP,2.23
18,YQSKGYNDDYYEESYFVTRTYGEP,2.13
19,YQSKGYNDDYYEESYFRTRTYGEP,2.44
20,YQSKGYNDDYYEQSYFTTRTYGEP,1.87
21,YQSKGYNDDYYELSYFTTRTYGEP,1.93
22,YQSKGYNDDYYEFSYFTTRTYGEP,3.37
23,YQSKGYNDDYYESSYFTTRTYGEP,2.16
24,YQSKGYNDDYYEISYFTTRTYGEP,1.67

row,Variant,protein stability index
1,YQSKGYNDDYYEKSYFTTRTYGEP,1.67
2,YQSKGYNDDYYEDSYFTTRTYGEP,2.42
3,YQSKGYNDDYYETSYFTTRTYGEP,2.29
4,YQSKGYNDDYYEHSYFTTRTYGEP,1.47
5,YQSKGYNDDYYERSYFTTRTYGEP,1.82
6,YQSKGYNDDYYEYSYFTTRTYGEP,1.91
7,YQSKGYNDDYYEGSYFTTRTYGEP,2
8,YQSKGYNDDYYECSYFTTRTYGEP,1.53
9,YQSKGYNDDYYENSYFTTRTYGEP,1.64
10,YQSKGYNDDYYEASYFTTRTYGEP,1.95
11,YQSKGYNDDYYEMSYFTTRTYGEP,2.68
12,YQSKGYNDDYYEPSYFTTRTYGEP,1.74
13,YQSKGYNDDYYEWSYFTTRTYGEP,1.83
14,YQSKGYNDDYYEVSYFTTRTYGEP,1.71
15,YQSKGYNDDYYEESYFTTRMYGEP,2.29
16,YQSKGYNDDYYEESYFTTRDYGEP,2.52
17,YQSKGYNDDYYEESYFTTRNYGEP,2.53
18,YQSKGYNDDYYEESYFTTRAYGEP,2.15
19,YQSKGYNDDYYEESYFTTRPYGEP,2.17
20,YQSKGYNDDYYEESYFTTRHYGEP,2.1
21,YQSKGYNDDYYEESYFTTRQYGEP,1.86
22,YQSKGYNDDYYEESYFTTRWYGEP,1.46
23,YQSKGYNDDYYEESYFTTREYGEP,2.52
24,YQSKGYNDDYYEESYFTTRKYGEP,2.05

row,Variant,protein stability index
1,YQSKGYNDDYYEESYFTTRGYGEP,2.6
2,YQSKGYNDDYYEESYFTTRLYGEP,2.4
3,YQSKGYNDDYYEESYFTTRFYGEP,2.23
4,YQSKGYNDDYYEESYFTTRVYGEP,2.1
5,YQSKGYNDDYYEESYFTTRYYGEP,1.44
6,YQSKGYNDDYYEESYFTTRCYGEP,2.26
7,YQSKGYNDDYYEESYFTTRSYGEP,2.33
8,YQSKGYNDDYYEESYFTTRIYGEP,1.73
9,YQSKGYNDDYYEESYFTTRRYGEP,2.1
10,YQSKGYNDDYYEESYFTTPTYGEP,2.53
11,YQSKGYNDDYYEESYFTTWTYGEP,2.03
12,YQSKGYNDDYYEESYFTTVTYGEP,2.26
13,YQSKGYNDDYYEESYFTTATYGEP,2.29
14,YQSKGYNDDYYEESYFTTTTYGEP,2.81
15,YQSKGYNDDYYEESYFTTQTYGEP,2.88
16,YQSKGYNDDYYEESYFTTHTYGEP,2.5
17,YQSKGYNDDYYEESYFTTLTYGEP,2.21
18,YQSKGYNDDYYEESYFTTNTYGEP,2.87
19,YQSKGYNDDYYEESYFTTCTYGEP,2.08
20,YQSKGYNDDYYEESYFTTETYGEP,3.12
21,YQSKGYNDDYYEESYFTTGTYGEP,3.07
22,YQSKGYNDDYYEESYFTTITYGEP,2.09
23,YQSKGYNDDYYEESYFTTKTYGEP,2.46
24,YQSKGYNDDYYEESYFTTDTYGEP,3.08

row,Variant,protein stability index
1,YQSKGYNDDYYEESYFTTMTYGEP,2.35
2,YQSKGYNDDYYEESYFTTFTYGEP,2.11
3,YQSKGYNDDYYEESYFTTYTYGEP,2.52
4,YQSKGYNDDYYEESYFTTSTYGEP,2.53
5,YQSKGYNDDYYEESYFTTRTYCEP,1.92
6,YQSKGYNDDYYEESYFTTRTYAEP,2.1
7,YQSKGYNDDYYEESYFTTRTYDEP,2.23
8,YQSKGYNDDYYEESYFTKRTYGEP,2.65
9,YQSKGYNDDYYEESYFTMRTYGEP,2.04
10,YQSKGYNDDYYEESYFTHRTYGEP,2.17
11,YQSKGYNDDYYEESYFTNRTYGEP,2.5
12,YQSKGYNDDYYEESYFTDRTYGEP,2.46
13,YQSKGYNDDYYEESYFTPRTYGEP,1.88
14,YQSKGYNDDYYEESYFTLRTYGEP,2.11
15,YQSKGYNDDYYEESYFTYRTYGEP,1.76
16,YQSKGYNDDYYEESYFTGRTYGEP,2.09
17,YQSKGYNDDYYEESYFTARTYGEP,2.31
18,YQSKGYNDDYYEESYFTQRTYGEP,2.3
19,YQSKGYNDDYYEESYFTRRTYGEP,2.79
20,YQSKGYNDDYYEESYFTCRTYGEP,2.08
21,YQSKGYNDDYYEESYFTVRTYGEP,1.95
22,YQSKGYNDDYYEESYFTIRTYGEP,1.77
23,YQSKGYNDDYYEESYFTFRTYGEP,1.39
24,YQSKGYNDDYYEESYFTWRTYGEP,2.02

row,Variant,protein stability index
1,YQSKGYNDDYYEESYFTSRTYGEP,2.38
2,YQSKGYNDDYYEESYFTERTYGEP,2.44
3,YQSKGYNDDYYEESVFTTRTYGEP,2.62
4,YQSKGYNDDYYEESRFTTRTYGEP,2.75
5,YQSKGYNDDYYEESHFTTRTYGEP,2.9
6,YQSKGYNDDYYEESSFTTRTYGEP,2.96
7,YQSKGYNDDYYEESCFTTRTYGEP,2.37
8,YQSKGYNDDYYEESKFTTRTYGEP,2.63
9,YQSKGYNDDYYEESMFTTRTYGEP,2.42
10,YQSKGYNDDYYEESQFTTRTYGEP,2.91
11,YQSKGYNDDYYEESIFTTRTYGEP,2.11
12,YQSKGYNDDYYEESEFTTRTYGEP,3.41
13,YQSKGYNDDYYEESAFTTRTYGEP,2.92
14,YQSKGYNDDYYEESFFTTRTYGEP,1.69
15,YQSKGYNDDYYEESWFTTRTYGEP,2.24
16,YQSKGYNDDYYEESNFTTRTYGEP,3.06
17,YQSKGYNDDYYEESLFTTRTYGEP,2
18,YQSKGYNDDYYEESDFTTRTYGEP,3.64
19,YQSKGYNDDYYEESGFTTRTYGEP,2.96
20,YQSKGYNDDYYEESTFTTRTYGEP,2.8
21,YQSKGYNDDYYEESPFTTRTYGEP,2.35
22,YQSKGYNDDYYEESYFTTRTLGEP,2.32
23,YQSKGYNDDYYEESYFTTRTPGEP,2.76
24,YQSKGYNDDYYEESYFTTRTHGEP,2.86

row,Variant,protein stability index
1,YQSKGYNDDYYEESYFTTRTKGEP,2.52
2,YQSKGYNDDYYEESYFTTRTAGEP,2.76
3,YQSKGYNDDYYEESYFTTRTRGEP,2.46
4,YQSKGYNDDYYEESYFTTRTVGEP,2.93
5,YQSKGYNDDYYEESYFTTRTGGEP,2.98
6,YQSKGYNDDYYEESYFTTRTSGEP,2.77
7,YQSKGYNDDYYEESYFTTRTWGEP,1.96
8,YQSKGYNDDYYEESYFTTRTDGEP,3.06
9,YQSKGYNDDYYEESYFTTRTTGEP,2.27
10,YQSKGYNDDYYEESYFTTRTIGEP,2.39
11,YQSKGYNDDYYEESYFTTRTCGEP,2.81
12,YQSKGYNDDYYEESYFTTRTMGEP,2.97
13,YQSKGYNDDYYEESYFTTRTQGEP,2.53
14,YQSKGYNDDYYEESYFTTRTFGEP,2.02
15,YQSKGYNDDYYEESYFTTRTNGEP,2.68
16,YQSKGYNDDYYEESYFTTRTEGEP,3.18
17,YQSKGYNDDYYEEVYFTTRTYGEP,2.19
18,YQSKGYNDDYYEEMYFTTRTYGEP,2.26
19,YQSKGYNDDYYEEDYFTTRTYGEP,2.44
20,YQSKGYNDDYYEEGYFTTRTYGEP,2.37
21,YQSKGYNDDYYEETYFTTRTYGEP,2.38
22,YQSKGYNDDYYEEQYFTTRTYGEP,2.34
23,YQSKGYNDDYYEEHYFTTRTYGEP,2.13
24,YQSKGYNDDYYEEEYFTTRTYGEP,2.83

row,Variant,protein stability index
1,YQSKGYNDDYYEEKYFTTRTYGEP,2.16
2,YQSKGYNDDYYEEIYFTTRTYGEP,1.76
3,YQSKGYNDDYYEEPYFTTRTYGEP,2.62
4,YQSKGYNDDYYEECYFTTRTYGEP,1.77
5,YQSKGYNDDYYEERYFTTRTYGEP,1.9
6,YQSKGYNDDYYEELYFTTRTYGEP,2.08
7,YQSKGYNDDYYEENYFTTRTYGEP,2.35
8,YQSKGYNDDYYEEWYFTTRTYGEP,2.29
9,YQSKGYNDDYYEEAYFTTRTYGEP,1.88
10,YQSKGYNDDYYEEYYFTTRTYGEP,2.28
11,YQSKGYNDDYYEEFYFTTRTYGEP,1.78
12,YQSKGYNDDYYSESYFTTRTYGEP,2.33
13,YQSKGYNDDYYTESYFTTRTYGEP,2.2
14,YQSKGYNDDYYKESYFTTRTYGEP,2.33
15,YQSKGYNDDYYHESYFTTRTYGEP,1.52
16,YQSKGYNDDYYIESYFTTRTYGEP,2.38
17,YQSKGYNDDYYNESYFTTRTYGEP,1.95
18,YQSKGYNDDYYPESYFTTRTYGEP,2.12
19,YQSKGYNDDYYQESYFTTRTYGEP,1.86
20,YQSKGYNDDYYLESYFTTRTYGEP,2.14
21,YQSKGYNDDYYRESYFTTRTYGEP,1.73
22,YQSKGYNDDYYYESYFTTRTYGEP,1.79
23,YQSKGYNDDYYVESYFTTRTYGEP,1.71
24,YQSKGYNDDYYMESYFTTRTYGEP,2.26

row,Variant,protein stability index
1,YQSKGYNDDYYWESYFTTRTYGEP,2.19
2,YQSKGYNDDYYEESYPTTRTYGEP,3.19
3,YQSKGYNDDYYEESYWTTRTYGEP,1.45
4,YQSKGYNDDYYEESYHTTRTYGEP,3.08
5,YQSKGYNDDYYEESYITTRTYGEP,2.95
6,YQSKGYNDDYYEESYNTTRTYGEP,3.59
7,YQSKGYNDDYYEESYRTTRTYGEP,2.69
8,YQSKGYNDDYYEESYDTTRTYGEP,3.47
9,YQSKGYNDDYYEESYVTTRTYGEP,2.85
10,YQSKGYNDDYYEESYMTTRTYGEP,2.91
11,YQSKGYNDDYYEESYYTTRTYGEP,2.28
12,YQSKGYNDDYYEESYATTRTYGEP,3.2
13,YQSKGYNDDYYEESYCTTRTYGEP,3.12
14,YQSKGYNDDYYEESYSTTRTYGEP,2.88
15,YQSKGYNDDYYEESYQTTRTYGEP,3.1
16,YQSKGYNDDYYEESYTTTRTYGEP,3.14
17,YQSKGYNDDYYEESYKTTRTYGEP,3.15
18,YQSKGYNDDYYEESYLTTRTYGEP,3.38
19,YQSKGYNDDYYEESYETTRTYGEP,3.64
20,YQSKGYNDDYYEESYGTTRTYGEP,3.26
